# Assay results published in patent US20240075139A1.
# Target: EBOV Mayinga (GenBank: NC_002549) (Zaire Ebolavirus (EBOV Mayinga)) (UniProt Q05320)
# Test: cell-based or functional assay
# UniProt Q05320, sequence (Q05320 33-676 limits assumed): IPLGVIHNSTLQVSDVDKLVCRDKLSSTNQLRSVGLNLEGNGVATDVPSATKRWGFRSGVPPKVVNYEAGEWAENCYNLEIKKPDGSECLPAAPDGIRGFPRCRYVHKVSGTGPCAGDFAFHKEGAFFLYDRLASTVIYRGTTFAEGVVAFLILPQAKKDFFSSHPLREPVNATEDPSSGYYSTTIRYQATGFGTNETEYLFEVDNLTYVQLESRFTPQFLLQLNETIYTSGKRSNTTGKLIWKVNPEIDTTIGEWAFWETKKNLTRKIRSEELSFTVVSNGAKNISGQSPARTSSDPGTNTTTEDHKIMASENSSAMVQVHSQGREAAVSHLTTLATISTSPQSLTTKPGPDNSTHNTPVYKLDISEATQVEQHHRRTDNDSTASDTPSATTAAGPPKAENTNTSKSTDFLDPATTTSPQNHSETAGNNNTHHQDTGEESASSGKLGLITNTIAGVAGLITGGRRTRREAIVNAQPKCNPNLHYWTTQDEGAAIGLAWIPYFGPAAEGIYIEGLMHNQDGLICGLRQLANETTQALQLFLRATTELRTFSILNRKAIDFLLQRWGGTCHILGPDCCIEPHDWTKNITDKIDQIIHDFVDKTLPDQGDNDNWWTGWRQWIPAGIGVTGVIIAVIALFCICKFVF
row,Binder,"neutralization concentration (GMC, CPE reduction on Vero C1008 cells)"
1,"5T0223 (antibody, V domains shown) VH: EVQLVESGGGLVKPGGSLRLSCEASGFTFRNTWMNWVRQAPGKGLEWVGRIKSNTDGGTADYAAPVKGRFTISRDDSKSTLFLEMISLRTEDTGFYYCTKGGPGAHSWGLGTLVTVSS VL: QSVLTQPPSVSGAPGQRVTISCTGSSSNIGAGYDVQWYQQLPGTAPKVLIYHNTNRPSGVPDRFSGSRSGTSASLVITGLQAEDEADYYCQTYDSRLSDHWVFGGGTKLTVL",1.86 µg/mL
2,"5T0180 (antibody, V domains shown) VH: EVQLVESGGGLVKPGGSLRLSCAASGFSFGNAWMNWVRQAPGKGLEWVGRIKSKSDGGTTDYAAPVKDRFIISRDDSKKTLYLQMNSLRREDTAVYYCVRGPFYCDTCGPNDYWGQGTLVTVSS VL: QSVLTQPPSVSGAPGQRVTISCTGSSSNIGAGYDVQWYQQLPGTAPKVLIYGNNNRPSGVPDRFSGSKSGSSASLAITGLQAEDEADYYCQTYDSRLRDQWVFGGGTKLTVL",12.5 µg/mL
3,"1T0139 (antibody, V domains shown) VH: QVQLQESGPGLVKPSETLSLTCIVSGGSLSSYYWSWVRQPAGKGLQWIGHIYTTGSTNYNPSLKSRVTMSIDTSKNQFSLRLSSVTAADTAVYYCARESYRYNAYDIHPFDYWGQGTLVTVSS VL: SYELTQSSSVSVSPGQTASITCSGDKLGDNYVCWYQQKPGQSPTLVIYQDNRRPSGIPERFSGSNSGNTATLTIRGTQALDEADYYCQAWASNTVVFGGGTKLTVL",7.44 µg/mL
4,"1T0473 (antibody, V domains shown) VH: QVQLVQSGAEVKKPGASVKVSCKASGYTFPSYEINWVRQATGQGLEWMGWMDPKSGKTGYAQKFQGRVTMTRNPSISTAYLELSSLRSEDSAVYYCARGNQWFGELLSSYYGLDVWGQGTTVTVSS VL: EIVLTQSPGTLSLSPGEGATLSCRASQSVSSSFLTWYHQKPGQAPRLLIYGASNRATGVPDRFSGGGSGTDFTLTISRLEPEDFGVYYCQQYGSSLITFGPGTKVDIK",2.63 µg/mL
5,"1T0655 (antibody, V domains shown) VH: QVQLVQSGAEVKKPGASVKVSCKASGYTFTSYYMHWVRQVPGQGLEWMGIIKAGNGGTNYAQNFQGRITVTRDTSTSTVYMELSSLRSEDTAVYYCARDRQWLPLNGYSYFNYGMDVWGQGTTVTVSS VL: DIQMTQSPSSLSASVGDKITITCRASQSISTYLNWYQQRPGRAPKLLIFGASSLQSGVPSRFSGSGSGTVFTLSISSLQPDDFGSFYCQQSFSSPRTFGQGTKVEIK",0.08 µg/mL
6,"4T0429 (antibody, V domains shown) VH: QVQLQQWGAGLLKPSETLSLTCAVYRGSFITYYWSWVRQPPGRGLEWIGEIYKDGSASYNPSLKNRVTISLDMSKNHFSLNLDSVTAADTAVYYCARHGHTGMDVWGQGTTVTVSS VL: QSVLTQPPSTSGTPGQRVTISCSGSSSNIGLNYVYWYQQLPGTAPKLLIYRNNQRPSGVPDRFSGSKSGTSASLAISGLRSEDEADYYCAAWDDSLSAYIFGTGTKVTVL",35 µg/mL
7,"3T0258 (antibody, V domains shown) VH: QVQLVQSGAEVKQPGASVKVTCKASGSTRSSYDLIWVRQAPGQGLELMGRVNTHNGNTDYAQKFQGRVTMTTDTSTTTAHMELRNLRSDDTAVYYCAWRRSSWFAFDVWGQGTAVTVSS VL: EIVLTQSPGTLSLSPGERGTLSCRASQSISGNYLGWYQQSPGQAPRLLIYGASNRATGVPDRFSGSGSGTDFTLTISRLEPEDFAVYYCQQYVSSPYTFGQGTKLEIK",0.06 µg/mL
8,"1T0451 (antibody, V domains shown) VH: QVQLVQSGAEVKKPGASVKISCEASGYNFNGYVIDWVRQAPGQRLEWMGWINPGNGNTKFSPKFQGRVTFTRAASASTAYMELSSLTSEDTALYFCARGRGTSYYYAFDVWGQGTTVTVSS VL: DIQMTQFPSSLSASVGDRVTISCRASQNISNYLNWYQQKPGKAPKFLIYAASNLQSGVPSRFSGSGSGTGFTLTISNLQPEDFAIYYCQQTYRSPLYTFGQGTKLEIK",2.5 µg/mL
9,"5T0202 (antibody, V domains shown) VH: EVQLVESGGGLVKPGGSLRLSCGASGFSFNDAWMNWVRQAPGKGLEWVGRIKSKADGGGSDTAAPVKGRFIISRDDSKNTLFLQMERLKSEDTGVYYCTTSLNIWGTYRDCWGQGTLVTVSS VL: QSVLTQPPSVSGAPGQRVTISCTGSYSNIGAGYDVRWYQQLPETAPKLLIYGNNNRPSGVPDRFSGSKSGTSASLAITGLQAEDEADYYCQSYDSRLRDSWVFGGGTRLTVL",2.5 µg/mL
10,"1T0201 (antibody, V domains shown) VH: EVQLVESGGGLVKPGGSLRLSCAAAGFSFSKAWMNWVRQAPGKGLEWVGRIKSKTDGGTTDYTAPVKGRFIISRDDSKNMLYLQMNSLKAEDTAVYWCTTRVDMEWGKYGTDVWGQGTTVTVSS VL: QSVLTQPPSVSGAPGQRVTISCTGSSSNIGAGYDVHWYQKLPGTAPKLLIYDKNIRPSGVPDRFSGSKSGVSASLAITGLQAEDEADYYCQSYDSRLSDSWVFGGGTKLTVL",2.63 µg/mL
11,"5T0376 (antibody, V domains shown) VH: QVQLQESGPGLVKPSETLSLTCSVSGASISTLYWSWIRQPPGKGLEWIGYMHSSGTTNYNPSLESRVTMSIDTSRNQFSLKLTSVTAADTAVYYCARGLLGPGDSWGQGTLVTVSS VL: QSALTQPASVSGSPGQSITISCTGTSSDVGGYNYVSWYQQYPGKAPKLMIYEVTSRPSGVSNRFSGSKSGNTASLTISGLQAEDEGDYYCSSYKTGSTPVVFGGGTKLTVL",12.5 µg/mL
12,"5T0337 (antibody, V domains shown) VH: EVQLVESGGGLVKPGGSLRISCAASGFTFNNAWMNWVRQSPGKGLEWVGRIKSKSDAGTTDYAAPVKGRFIISRDDSKKTLFLQMNSLKIEDTAIYFCMTGFEHTYSYFDLWGRGTQVTVSS VL: QSVLTQPPSVSGAPGQRVIISCIGGSSNIGAGYDVKWYQQLLPGTAPRLLIYGNTNRPSGVPDRFSGSKSGTSASLAITGLQAEDEADYYCQSYDSRLRDAWVFGGGTKLTVL",2.21 µg/mL
13,"3T0468 (antibody, V domains shown) VH: EVQLVESGGHLIQPGGSLRLSCAASGFTFRIYDMHWVRQGRRKGLEWVSAIGAAGDTYYSDSVKGRFTISRENAKSSLYLQMNSLSVGDTAVYYCARAAFGAVYYDNWGQGILVTVSS VL: EIVLTQSPGTLSLSPGERATLSCRASENVDSRFLVWYQQKVGQAPRLLIYGASRRATGIPDRFSGSGSGTDFALTISRLEPEDLAVYYCQQYGRSPITFGQGTRLEIK",2.1 µg/mL
14,"4T0726 (antibody, V domains shown) VH: QVQLVQSGVEVKEPGASVRVSCKASGYTFTHYGITWVRQAPGQGLEWMGWISGYNGNTDYAQKFQGRITMTTDTSTSTAYMELGRLTSDDTAVYYCARTITMILLGWFDPWGQGTLVTVSS VL: EIVLTQSPGTLSLSPGERATLSCRASQSVSSNYLAWYQQKPGQAPRLLISGASNRATGLPDGFSGSGSGTDFTLTISRLEPEDFAVFFCQQYGTSPLTFGPGTKVDIK",2.56 µg/mL
15,"4T0306 (antibody, V domains shown) VH: QVQLQQSGPGLVRPSQTLSLICAISGDSVSDNNAAWNWIRQSPSRGLEWLGRTYFRSRWYNDYPESLKGRVIINPDTAENQVSLQLSSVTPGDTAVYYCVREYYDLWNGFYPGGAMDVWGQGTTVTVSS VL: DIQLTQSPSSLSASVGDRVTITCRASQDISDFLNWFQQKPGKAPKLLIYDVSKLARGVPSRFSGSASGTDFTFTISSLQPEDIATYYCQQYDDLPRTFGQGTKLEIK",100 µg/mL
